Reference: patent publication US20060252140A1

Target: hyperactive SB transposase mutant HSB5
Experiment: cell-based or functional assay

integration frequency against cells containing the E2C/SB-5 fusion protein without the limiting amount of HSB5 (142 colonies): 4 fold
integration frequency against cells expressing the same limiting amount of HSB5 transposase alone (58 colonies): 10 fold
Substance: E2C/SB-5 fusion protein
